The test system of data set [1] is T7 RNA polymerase, SNAPf fusion (T7 RNAP-SNAPf), freely diffusing (bacteriophage T7?). The following applies: Michaelis Km of transcription; 10 mM MgCl2, 37 C; Vmax 62 nM/s.
Data set [2] relates to T7 RNA polymerase, SNAPf fusion, anchored on DNA origami tile (T7-chip) (bacteriophage T7?). Conditions: apparent Michaelis Km of transcription for externally diffusing gene; 10 mM MgCl2, 37 C; Vmax 34 nM/s.

Turning to “sfGFP gene with T7 promoter (942 nt transcript)”, the K half in data set [1] came out at 5.6 nM; in data set [2], 1010 nM.
